The DeepSol protein solubility set

Assay: soluble on expression in E. coli; label from the status in PepcDB or PDB records

Sequence | soluble on expression in E. coli
GSPEFMELEIRPLFLVPDTNGFIDHLASLARLLESRKYILVVPLIVINELDGLAKGQETDHRAGGYARVVQEKARKSIEFLEQRFESRDSCLRALTSRGNELESIAFRSEDITGQLGNNDDLILSCCLHYCKDKAKDFMPASKEEPIRLLREVVLLTDDRNLRVKALTRNVPVRDIPAFLTWAQVG | soluble
MSLRKEPYLLVFGASVVDVFGFSKASYRPYNSTPGHVKISFGGVCRNIAENMARVGVNTNFMSILGNDEHGKSIVEHSKKIGYHMDDSMVIEGGSTPTYLAILDENGEMVSAIADMKSIGAMNTDFIDSKREIFENAEYTVLDSDNPEIMEYLLKNFKDKTNFILDPVSAEKASWVKHLIKDFHTIKPNRHEAEILAGFPITDTDDLIKASNYFLGLGIKKVFISLDADGIFYNDGVSCGKIKATEVDVKNVTGAGDSFVAGLGYGYMNKMPIEDIVKFAMTMSNITISHEETIHPDMALDTVLAKLEKTTWEEEKYDLNEGHHHHHH | soluble
MGSSHHHHHHDYDIPTTENLYFQGHMKIGIMSDTHDHLPNIRKAIEIFNDENVETVIHCGDFVSLFVIKEFENLNANIIATYGNNDGERCKLKEWLKDINEENIIDDFISVEIDDLKFFITHGHHQSVLEMAIKSGLYDVVIYGHTHERVFEEVDDVLVINPGECCGYLTGIPTIGILDTEKKEYREIVL | soluble
MGSDKIHHHHHHMMRNIAICSNEVENLILGQDSVKTIDMNGILVRCGLLRTENIYFDRNAVSNRFKVLVKKKAFSCNYRDKSIIFRITKQAPENTFYVVGSDFVGEVIATGSEVTELKVGDRVIANNAYPESDALEAFPGIPSNHASKEYQVFHQAKLIKIPLEMSDEIAAAFSIGGQTSYSIVRKFNPTKGSNILVTAAKSNTSLFVINALKKYDVNIYATSTSRLFEEELRAMGVKKVILVESKPNSLLENQSIQNIVAETGGFDCVFDPFFDLYLGQSVELMKIGAKYITCGLYDQYFELINQSFTPFSLNTNHIMGSVMTKNLQIIGNCLGLTEDLKNAIQDYALGHLNVVIDSVFTGKDIEGFFERTYNAKDRFGKVVYKYE | not soluble
MSTGSTKLRNVDAVIKKGKPFSILLLGTDTGALGRGKDFSARTDTMIVATINPKKESMTLTSIPRDTQVMIDGQSQKINAAYTIGGASGAVKSVEKLLDVPIDFYVLLNMGGLKQIINAMGGVTVTPKLTFKYGNANVKKGVKIKLNGAAALDYSRMRYDDPQGDYGRQKRQQQVIMAMVSQSNSLGSIANIEKITKKLAKNMRTDLTWNDMVALDTKYKNASHHAKSYTVQGTDATIDGLSYQVASSSERYKNSKRIRKALGLSNSNLTESVFSETASITTGSSSSSSSSSSTTTSSDTTTYGTSTTQDTTTQDQTTTQDQTTTNQYLEHHHHHH | soluble
MSFVVIIPARYASTRLPGKPLVDINGKPMIVHVLERARESGAERIIVATDHEDVARAVEAAGGEVCMTRADHQSGTERLAEVVEKCAFSDDTVIVNVQGDEPMIPATIIRQVADNLAQRQVGMATLAVPIHNAEEAFNPNAVKVVLDAEGYALYFSRATIPWDRDRFAEGLETVGDNFLRHLGIYGYRAGFIRRYVNWQPSPLEHIEMLEQLRVLWYGEKIHVAVAQEVPGTGVDTPEDLERVRAEMRGSHHHHHH | soluble
MELKSTRHTKYLCNYHFVWIPKHRRNTLVNEIAEYTKEVLKSIAEELGCEIIALEVMPDHIHLFVNCPPRYAPSYLANYFKGKSARLILKKFPQLNKGKLWTRSYFVATAGNVSSEVIKKYIEEQWRKEGEEE | soluble
MSLIIKNAKVVTHDMQLKEPWAIAGHVHDSIKNTFITLEDSEGNIGIGSCATQNDSEESVKECFDILESFSSSLVGKELGLNENTFGWIASELPLNTEANAAVDIAIHDLWAKREEKTLVDALGKKHQSFDTSITIGVASLEKTIEMAKKHIGNGFSILKIKIGDCVEEDIERMKALFELKPEKIKIRVDANRGYSKEELIKFYEKTLHLGLELIEQPMEVDQNNEMLYFPEEIRKICVADESLQNFDDAVRLLKEPKPFGVFNIKLMKCGGVFAAKKIASLAEENGIELMWGCFDESKISISAALHTALSCENTRYIDLDGFFDLGWDLIEGGYRCENGIMSAIERPGLGVFSEGHHHHHH | soluble
MGSDKIHHHHHHLLKSSSTVHKGADYWTKRISDQEMPALCSTVRELEKLAKDDVSSLAILGRSVMHDNALTSRILRVANSATYNKGINHVSTVSRAAVMLGFDTLRNICITARLLSSLLENKNLSPNVYQRLLKLMAQSFQAAMLARMMMTGHDEKLREEVFIASLLYRIGESAFWSTGGSFSDALDQKLRDSDSEQDPQAIVRDILGTSFSQLTQNIARSWGLGEVLLKSLSHPDERTPEIRCIALADKLAQLLIEPAEDPNEFAERLKQTADMLNIEVSEFRQKVVDCTKATQKLAIDYGAKVLLDFLPKSADVKASVDQEAKPLVVRASDAAIQLKKLRELTGYALTKTDFNQVMLTALEGILSGVGVDRCGVLLLSPNRQLLQPRIMLGDEAEAMKREFIISLDETMSIFSQCVERKTPFWVADPNAKEWQKSINPALKTKLSKTGFFLAPVSIDTRVIGVFFADRSHSGRSFEPQDYDNFTHFTQLANICFGVSVK | not soluble
MGSDKIHHHHHHMKRIVCPKDYYNEQGLLLSAKGTKITLSQFLRLQRKYDFLSETEANERTLASYEKIKQKICRKDERYKRADDQLLDQASALLVNIVFESKRKPWYMYLTALGNHINWLYTHSIDVALLSLMMAIESGVSQRSLWDLGVGGILHDVGKLLIPKKIIQKRTELSDIEKDILRQHCELGVECTTDCAFPILSQDIIAQHHERLDGSGYPNQLQEGQINEYVKIVMIADAFDTITAGRPYRKTVEVEEALAYLEDQEGAFSRMYLETLKNILVRP | not soluble
MGSDKIHHHHHHMKGMDIMNSAMILEISWFQEHGIMRRAVNRGLARKSSHPSRIGIDEKYYGKHHRYITLVFNHDDHSVEFISLDRKQESLDLYYRSIGEEASGSIEAAPMDMWDPFIVSTKSNVTDAESKIVFDRFHVMKHMNMALDDVRWMESRMAEYKEMFRKTRCLWLYSPENLPDKYGERYEILKESDLKTARVYAIKENLRNLWNCSGEDEARSF | not soluble
GSHMAIDENKQKALAAALGQIEKQFGKGSIMRLGEDRSMDVETISTGSLSLDIALGAGGLPMGRIVEIYGPESSGKTTLTLQVIAAAQREGKTCAFIDAEHALDPIYARKLGVDIDNLLCSQPDTGEQALEICDALARSGAVDVIVVDSVAALTPKAEIEGEIGDSHMGLAARMMSQAMRKLAGNLKQSNTLLIFINQIRMKIGVMFGNPETTTGGNALKFYASVRLDIRRIGAVKEGENVVGSETRVKVVKNKIAAPFKQAEFQILYGEGINFYGELVDLGVKEKLIEKAGAWYSYKGEKIGQGKANATAWLKDNPETAKEIEKKVRELLLSNPNSTPDFSVDDSEGVAETNEDF | soluble
MAEAVLRVARRQLSQRGGSGAPILLRQMFEPVSCTFTYLLGDRESREAVLIDPVLETAPRDAQLIKELGLRLLYAVNTHCHADHITGSGLLRSLLPGCQSVISRLSGAQADLHIEDGDSIRFGRFALETRASPGHTPGCVTFVLNDHSMAFTGDALLIRGCGRTDFQQGCAKTLYHSVHEKIFTLPGDCLIYPAHDYHGFTVSTVEEERTLNPRLTLSCEEFVKIMGNLNLPKPQQIDFAVPANMRCGVQTPTALEHHHHHH | soluble
MGSDKIHHHHHHMSEEQKTISISELESMNIKQLYEIAKSLGIPRYTSMRKRDLIFAILKAQTESTGYFFGEGVLEIHPEGFGFLRRIEDNLLPSNDDIYISPSQIRKFNLNTGDIISGVIRKPKEGEKYFAMIKIEAINYRPVEAVNDRVNFDNLTPDYPRERFILETDPKIYSTRLIDLFAPIGKGQRGMIVAPPKAGKTTILKEIANGIAENHPDTIRIILLIDERPEEVTDIRESTNAIVIAAPFDMPPDKQVKVAELTLEMAKRLVEFNYDVVILLDSLTRLARVYNIVVPPSGKLLTGGVDPAALYKPKRFFGAARNTREGGSLTIIATALVETGSKMDEVIFEEFKGTGNMELVLSRQLANKRIFPAINLLLSGTRREELLLDEETLKKVWLLRRMLSAMTEEEGLTLILNKLSETSSNEEFLKLIDKEKARY | not soluble
